{
  "source": "paper PMC3237005",
  "origin": "cited, not measured here",
  "key": {"[1]": {"biological_target": "Lethal factor (LF) LFN (Bacillus anthracis) (UniProt P15917)"}, "[2]": {"biological_target": "Edema factor (EF) EFN (Bacillus anthracis) (UniProt P40136)"}},
  "data": [
    {"substance": "Protective antigen (PA63 heptamer) PA63 (from UniProt P13423)", "values": [
      {"measurement": "Kd", "setting": "[1]", "result": 1, "unit": "nM"},
      {"measurement": "Kd", "setting": "[2]", "result": 1, "unit": "nM"}
    ]}
  ]
}
